Key:
Assay in all cases: peptide or protein array
[1] = target: Mal32p (spotted on the yeast ProtoArray) (S. cerevisiae, UniProt P38158 1-584)
[2] = target: Mal12p (spotted on the yeast ProtoArray) (S. cerevisiae, UniProt P53341 1-584)
[3] = target: T1, Drs1p (spotted on the yeast ProtoArray) (S. cerevisiae, UniProt P32892 1-752)
T1 sequence (looked up): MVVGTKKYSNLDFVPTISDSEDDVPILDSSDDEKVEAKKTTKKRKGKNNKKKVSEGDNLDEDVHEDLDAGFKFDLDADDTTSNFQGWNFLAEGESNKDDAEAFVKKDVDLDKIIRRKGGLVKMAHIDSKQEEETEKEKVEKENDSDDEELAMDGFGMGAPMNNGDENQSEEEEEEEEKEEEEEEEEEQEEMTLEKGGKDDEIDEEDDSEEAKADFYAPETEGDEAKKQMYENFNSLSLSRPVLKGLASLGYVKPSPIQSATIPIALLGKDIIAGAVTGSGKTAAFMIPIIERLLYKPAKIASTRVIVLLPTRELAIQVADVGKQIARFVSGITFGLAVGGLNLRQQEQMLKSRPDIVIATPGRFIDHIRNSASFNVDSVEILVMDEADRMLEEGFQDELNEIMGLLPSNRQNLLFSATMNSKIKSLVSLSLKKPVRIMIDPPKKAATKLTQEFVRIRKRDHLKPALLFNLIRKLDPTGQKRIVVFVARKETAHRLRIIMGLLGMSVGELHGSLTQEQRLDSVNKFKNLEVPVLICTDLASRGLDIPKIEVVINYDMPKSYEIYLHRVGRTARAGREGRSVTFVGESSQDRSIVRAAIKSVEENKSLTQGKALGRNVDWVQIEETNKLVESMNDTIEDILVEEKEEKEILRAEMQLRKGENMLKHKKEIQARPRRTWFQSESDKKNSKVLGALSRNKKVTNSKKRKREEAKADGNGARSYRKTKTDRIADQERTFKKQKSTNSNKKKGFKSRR

[4] = target: T2, Nap1p (spotted on the yeast ProtoArray) (S. cerevisiae, UniProt P25293 1-417)
T2 sequence (looked up): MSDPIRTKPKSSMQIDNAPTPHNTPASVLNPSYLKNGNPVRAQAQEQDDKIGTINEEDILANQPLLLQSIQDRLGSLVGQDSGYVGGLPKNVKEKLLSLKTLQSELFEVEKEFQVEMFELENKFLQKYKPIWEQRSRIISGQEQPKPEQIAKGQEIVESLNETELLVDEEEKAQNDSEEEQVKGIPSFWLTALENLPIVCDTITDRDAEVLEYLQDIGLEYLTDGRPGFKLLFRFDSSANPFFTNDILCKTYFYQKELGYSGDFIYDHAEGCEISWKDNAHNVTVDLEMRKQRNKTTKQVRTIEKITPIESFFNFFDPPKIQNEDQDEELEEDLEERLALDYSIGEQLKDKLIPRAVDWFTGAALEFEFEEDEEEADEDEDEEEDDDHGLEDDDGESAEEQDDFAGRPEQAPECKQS

Measured: binding result

Sequence of Mal32p (spotted on the yeast ProtoArray) (P38158 whole entry): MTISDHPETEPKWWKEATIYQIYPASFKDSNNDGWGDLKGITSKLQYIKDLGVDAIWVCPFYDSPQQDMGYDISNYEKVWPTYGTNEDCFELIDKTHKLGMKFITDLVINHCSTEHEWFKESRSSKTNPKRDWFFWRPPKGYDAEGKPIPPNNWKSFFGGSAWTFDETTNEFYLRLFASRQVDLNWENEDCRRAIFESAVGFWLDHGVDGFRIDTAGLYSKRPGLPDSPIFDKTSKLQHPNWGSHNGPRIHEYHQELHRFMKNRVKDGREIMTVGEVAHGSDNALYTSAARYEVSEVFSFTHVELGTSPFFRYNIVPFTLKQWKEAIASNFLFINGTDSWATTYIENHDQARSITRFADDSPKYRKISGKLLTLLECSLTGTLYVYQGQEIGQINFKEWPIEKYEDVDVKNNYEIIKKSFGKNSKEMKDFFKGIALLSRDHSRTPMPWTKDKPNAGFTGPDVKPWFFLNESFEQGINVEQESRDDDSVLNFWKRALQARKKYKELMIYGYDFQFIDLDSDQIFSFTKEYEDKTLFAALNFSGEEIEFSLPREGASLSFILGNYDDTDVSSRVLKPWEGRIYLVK
Sequence of Mal12p (spotted on the yeast ProtoArray) (P53341 whole entry): as the sequence (P38158 whole entry) above, with L305V, F467L counted along it

B1: purified and biotinylated cytoplasmic domain of the Msb2p protein (HIS-Msb2p^CYT) (domain or fragment, S. cerevisiae, UniProt P32334 1207-1306, looked up)
chain: AFKYIIRRRIQSQEIIKNPEISSISSSEFGGEKNYNNEKRMSVQESITQSMRIQNWMDDSYYGHGLTNNDSTPTRHNTSSSIPKISRPIASQNSLGWNEV
modifications: biotinylated in vitro (sites not given)
binds: all assays above

Source: article doi:10.1101/786475 (bioRxiv, 2019)
